Reference: the RNAGym collection of RNA variant scans (doi:10.7554/elife.80360)

B1: CPEB3 Ribozyme (parent)
chain: GGGGGCCACAGCAGAAGCGUUCACGUCGCGGCCCCUGUCAGAUUCUGGUGAAUCUGCGAAUUCUGCUGU

Variants of: B1
Assay: self-cleavage, relative activity (ratio to wild type); higher = more cleavage; co-transcriptional
GGGGGCCACAGCCGAAGCGUUCACGUCGCGGCCCCUAUCAGAUUCUGGUGAAUCUGCGAAUUCUGCUGU [A13C G37A] showed a self-cleavage of 0.14. In the case of GGGGGCCACAGCCGAAGCGUUCACGUCGCGGCCCCUUUCAGAUUCUGGUGAAUCUGCGAAUUCUGCUGU [A13C G37U], the self-cleavage is reported as 0.225. GGGGGCCACAGCCGAAGCGUUCACGUCGCGGCCCCUGUCACAUUCUGGUGAAUCUGCGAAUUCUGCUGU [A13C G41C] showed a self-cleavage of 0.214. Variant GGGGGCCACAGCCGAAGCGUUCACGUCGCGGCCCCUGUCAUAUUCUGGUGAAUCUGCGAAUUCUGCUGU [A13C G41U] has a self-cleavage of 0.349. Work on GGGGGCCACAGCCGAAGCGUUCACGUCGCGGCCCCUGUCAGAUUCUCGUGAAUCUGCGAAUUCUGCUGU [A13C G47C] yielded a self-cleavage of 0.928. GGGGGCCACAGCCGAAGCGUUCACGUCGCGGCCCCUGUCAGAUUCUUGUGAAUCUGCGAAUUCUGCUGU [A13C G47U] gave a self-cleavage of 0.959. Work on GGGGGCCACAGCCGAAGCGUUCACGUCGCGGCCCCUGUCAGAUUCUGGUCAAUCUGCGAAUUCUGCUGU [A13C G50C] yielded a self-cleavage of 0.787. For GGGGGCCACAGCCGAAGCGUUCACGUCGCGGCCCCUGUCAGAUUCUGGUUAAUCUGCGAAUUCUGCUGU [A13C G50U], the self-cleavage was 0.909. Work on GGGGGCCACAGCCGAAGCGUUCACGUCGCGGCCCCUGUCAGAUUCUGGUGAAUCUACGAAUUCUGCUGU [A13C G56A] yielded a self-cleavage of 0.625. GGGGGCCACAGCCGAAGCGUUCACGUCGCGGCCCCUGUCAGAUUCUGGUGAAUCUCCGAAUUCUGCUGU [A13C G56C] gave a self-cleavage of 0.367. In the case of GGGGGCCACAGCCGAAGCGUUCACGUCGCGGCCCCUGUCAGAUUCUGGUGAAUCUUCGAAUUCUGCUGU [A13C G56U], the self-cleavage is reported as 0.51. In the case of GGGGGCCACAGCCGAAGCGUUCACGUCGCGGCCCCUGUCAGAUUCUGGUGAAUCUGCAAAUUCUGCUGU [A13C G58A], the self-cleavage is reported as 0.754. GGGGGCCACAGCCGAAGCGUUCACGUCGCGGCCCCUGUCAGAUUCUGGUGAAUCUGCCAAUUCUGCUGU [A13C G58C] gave a self-cleavage of 0.862. Variant GGGGGCCACAGCCGAAGCGUUCACGUCGCGGCCCCUGUCAGAUUCUGGUGAAUCUGCUAAUUCUGCUGU [A13C G58U] has a self-cleavage of 0.933. GGGGGCCACAGCCGAAGCGUUCACGUCGCGGCCCCUGUCAGAUUCUGGUGAAUCUGCGAAUUCUACUGU [A13C G65A] showed a self-cleavage of 0.431. For GGGGGCCACAGCCGAAGCGUUCACGUCGCGGCCCCUGUCAGAUUCUGGUGAAUCUGCGAAUUCUCCUGU [A13C G65C], the self-cleavage was 0.278. GGGGGCCACAGCCGAAGCGUUCACGUCGCGGCCCCUGUCAGAUUCUGGUGAAUCUGCGAAUUCUGCUAU [A13C G68A] gave a self-cleavage of 0.921. In the case of GGGGGCCACAGCCGAAGCGUUCACGUCGCGGCCCCUGUCAGAUUCUGGUGAAUCUGCGAAUUCUGCUCU [A13C G68C], the self-cleavage is reported as 0.917. GGGGGCCACAGCCGAAGCGAUCACGUCGCGGCCCCUGUCAGAUUCUGGUGAAUCUGCGAAUUCUGCUGU [A13C U20A] showed a self-cleavage of 0.149. Work on GGGGGCCACAGCCGAAGCGCUCACGUCGCGGCCCCUGUCAGAUUCUGGUGAAUCUGCGAAUUCUGCUGU [A13C U20C] yielded a self-cleavage of 0.128. In the case of GGGGGCCACAGCCGAAGCGUACACGUCGCGGCCCCUGUCAGAUUCUGGUGAAUCUGCGAAUUCUGCUGU [A13C U21A], the self-cleavage is reported as 0.772. With GGGGGCCACAGCCGAAGCGUCCACGUCGCGGCCCCUGUCAGAUUCUGGUGAAUCUGCGAAUUCUGCUGU [A13C U21C] the self-cleavage was 0.496. For GGGGGCCACAGCCGAAGCGUGCACGUCGCGGCCCCUGUCAGAUUCUGGUGAAUCUGCGAAUUCUGCUGU [A13C U21G], the self-cleavage was 0.135. In the case of GGGGGCCACAGCCGAAGCGUUCACGACGCGGCCCCUGUCAGAUUCUGGUGAAUCUGCGAAUUCUGCUGU [A13C U26A], the self-cleavage is reported as 0.615. With GGGGGCCACAGCCGAAGCGUUCACGCCGCGGCCCCUGUCAGAUUCUGGUGAAUCUGCGAAUUCUGCUGU [A13C U26C] the self-cleavage was 0.692. For GGGGGCCACAGCCGAAGCGUUCACGGCGCGGCCCCUGUCAGAUUCUGGUGAAUCUGCGAAUUCUGCUGU [A13C U26G], the self-cleavage was 0.113. Variant GGGGGCCACAGCCGAAGCGUUCACGUCGCGGCCCCCGUCAGAUUCUGGUGAAUCUGCGAAUUCUGCUGU [A13C U36C] has a self-cleavage of 0.62. GGGGGCCACAGCCGAAGCGUUCACGUCGCGGCCCCUGUCAGAAUCUGGUGAAUCUGCGAAUUCUGCUGU [A13C U43A] showed a self-cleavage of 0.514. Variant GGGGGCCACAGCCGAAGCGUUCACGUCGCGGCCCCUGUCAGAGUCUGGUGAAUCUGCGAAUUCUGCUGU [A13C U43G] has a self-cleavage of 0.32. For GGGGGCCACAGCCGAAGCGUUCACGUCGCGGCCCCUGUCAGAUACUGGUGAAUCUGCGAAUUCUGCUGU [A13C U44A], the self-cleavage was 0.7. In the case of GGGGGCCACAGCCGAAGCGUUCACGUCGCGGCCCCUGUCAGAUCCUGGUGAAUCUGCGAAUUCUGCUGU [A13C U44C], the self-cleavage is reported as 0.51. For GGGGGCCACAGCCGAAGCGUUCACGUCGCGGCCCCUGUCAGAUGCUGGUGAAUCUGCGAAUUCUGCUGU [A13C U44G], the self-cleavage was 0.802. Variant GGGGGCCACAGCCGAAGCGUUCACGUCGCGGCCCCUGUCAGAUUCCGGUGAAUCUGCGAAUUCUGCUGU [A13C U46C] has a self-cleavage of 0.761. Variant GGGGGCCACAGCCGAAGCGUUCACGUCGCGGCCCCUGUCAGAUUCUGGAGAAUCUGCGAAUUCUGCUGU [A13C U49A] has a self-cleavage of 0.922. GGGGGCCACAGCCGAAGCGUUCACGUCGCGGCCCCUGUCAGAUUCUGGCGAAUCUGCGAAUUCUGCUGU [A13C U49C] gave a self-cleavage of 0.842. GGGGGCCACAGCCGAAGCGUUCACGUCGCGGCCCCUGUCAGAUUCUGGGGAAUCUGCGAAUUCUGCUGU [A13C U49G] gave a self-cleavage of 0.933. With GGGGGCCACAGCCGAAGCGUUCACGUCGCGGCCCCUGUCAGAUUCUGGUGAAACUGCGAAUUCUGCUGU [A13C U53A] the self-cleavage was 0.579. For GGGGGCCACAGCCGAAGCGUUCACGUCGCGGCCCCUGUCAGAUUCUGGUGAAUCCGCGAAUUCUGCUGU [A13C U55C], the self-cleavage was 0.439. GGGGGCCACAGCCGAAGCGUUCACGUCGCGGCCCCUGUCAGAUUCUGGUGAAUCUGCGAACUCUGCUGU [A13C U61C] showed a self-cleavage of 0.281.
